# Several values for one entry are separate records, joined by “and”; a condition that tells them apart may be missing. Identical values can stand only once.
# B1: F124M (protein)
# chain: MDIISVALKRHSTKAFDASKKLTPEQAEQIKTLLQYSPSSTNSQPWHFIVASTEEGKARVAKSAAGNYVFNERKMLDASHVVVFCAKTAMDDVWLKLVVDQEDADGRFATPEAKAANDKGRKFMADMHRKDLHDDAEWMAKQVYLNVGNFLLGVAALGLDAVPIEGFDAAILDAEFGLKEKGYTSLVVVPVGHHSVEDFNATLPKSRLPQNITLTEV
# B2: F124W (protein)
# chain: MDIISVALKRHSTKAFDASKKLTPEQAEQIKTLLQYSPSSTNSQPWHFIVASTEEGKARVAKSAAGNYVFNERKMLDASHVVVFCAKTAMDDVWLKLVVDQEDADGRFATPEAKAANDKGRKFWADMHRKDLHDDAEWMAKQVYLNVGNFLLGVAALGLDAVPIEGFDAAILDAEFGLKEKGYTSLVVVPVGHHSVEDFNATLPKSRLPQNITLTEV
# B3: Y68W (protein)
# chain: MDIISVALKRHSTKAFDASKKLTPEQAEQIKTLLQYSPSSTNSQPWHFIVASTEEGKARVAKSAAGNWVFNERKMLDASHVVVFCAKTAMDDVWLKLVVDQEDADGRFATPEAKAANDKGRKFFADMHRKDLHDDAEWMAKQVYLNVGNFLLGVAALGLDAVPIEGFDAAILDAEFGLKEKGYTSLVVVPVGHHSVEDFNATLPKSRLPQNITLTEV
# B4: F124C (protein)
# chain: MDIISVALKRHSTKAFDASKKLTPEQAEQIKTLLQYSPSSTNSQPWHFIVASTEEGKARVAKSAAGNYVFNERKMLDASHVVVFCAKTAMDDVWLKLVVDQEDADGRFATPEAKAANDKGRKFCADMHRKDLHDDAEWMAKQVYLNVGNFLLGVAALGLDAVPIEGFDAAILDAEFGLKEKGYTSLVVVPVGHHSVEDFNATLPKSRLPQNITLTEV
# B5: F124Q (protein)
# chain: MDIISVALKRHSTKAFDASKKLTPEQAEQIKTLLQYSPSSTNSQPWHFIVASTEEGKARVAKSAAGNYVFNERKMLDASHVVVFCAKTAMDDVWLKLVVDQEDADGRFATPEAKAANDKGRKFQADMHRKDLHDDAEWMAKQVYLNVGNFLLGVAALGLDAVPIEGFDAAILDAEFGLKEKGYTSLVVVPVGHHSVEDFNATLPKSRLPQNITLTEV
# B6: Y68A (protein)
# chain: MDIISVALKRHSTKAFDASKKLTPEQAEQIKTLLQYSPSSTNSQPWHFIVASTEEGKARVAKSAAGNAVFNERKMLDASHVVVFCAKTAMDDVWLKLVVDQEDADGRFATPEAKAANDKGRKFFADMHRKDLHDDAEWMAKQVYLNVGNFLLGVAALGLDAVPIEGFDAAILDAEFGLKEKGYTSLVVVPVGHHSVEDFNATLPKSRLPQNITLTEV
# B7: F124Y (protein)
# chain: MDIISVALKRHSTKAFDASKKLTPEQAEQIKTLLQYSPSSTNSQPWHFIVASTEEGKARVAKSAAGNYVFNERKMLDASHVVVFCAKTAMDDVWLKLVVDQEDADGRFATPEAKAANDKGRKFYADMHRKDLHDDAEWMAKQVYLNVGNFLLGVAALGLDAVPIEGFDAAILDAEFGLKEKGYTSLVVVPVGHHSVEDFNATLPKSRLPQNITLTEV
# B8: F124V (protein)
# chain: MDIISVALKRHSTKAFDASKKLTPEQAEQIKTLLQYSPSSTNSQPWHFIVASTEEGKARVAKSAAGNYVFNERKMLDASHVVVFCAKTAMDDVWLKLVVDQEDADGRFATPEAKAANDKGRKFVADMHRKDLHDDAEWMAKQVYLNVGNFLLGVAALGLDAVPIEGFDAAILDAEFGLKEKGYTSLVVVPVGHHSVEDFNATLPKSRLPQNITLTEV
# B9: F124T (protein)
# chain: MDIISVALKRHSTKAFDASKKLTPEQAEQIKTLLQYSPSSTNSQPWHFIVASTEEGKARVAKSAAGNYVFNERKMLDASHVVVFCAKTAMDDVWLKLVVDQEDADGRFATPEAKAANDKGRKFTADMHRKDLHDDAEWMAKQVYLNVGNFLLGVAALGLDAVPIEGFDAAILDAEFGLKEKGYTSLVVVPVGHHSVEDFNATLPKSRLPQNITLTEV
# B10: Y68S (protein)
# chain: MDIISVALKRHSTKAFDASKKLTPEQAEQIKTLLQYSPSSTNSQPWHFIVASTEEGKARVAKSAAGNSVFNERKMLDASHVVVFCAKTAMDDVWLKLVVDQEDADGRFATPEAKAANDKGRKFFADMHRKDLHDDAEWMAKQVYLNVGNFLLGVAALGLDAVPIEGFDAAILDAEFGLKEKGYTSLVVVPVGHHSVEDFNATLPKSRLPQNITLTEV
# B11: F124S (protein)
# chain: MDIISVALKRHSTKAFDASKKLTPEQAEQIKTLLQYSPSSTNSQPWHFIVASTEEGKARVAKSAAGNYVFNERKMLDASHVVVFCAKTAMDDVWLKLVVDQEDADGRFATPEAKAANDKGRKFSADMHRKDLHDDAEWMAKQVYLNVGNFLLGVAALGLDAVPIEGFDAAILDAEFGLKEKGYTSLVVVPVGHHSVEDFNATLPKSRLPQNITLTEV
# B12: F124G (protein)
# chain: MDIISVALKRHSTKAFDASKKLTPEQAEQIKTLLQYSPSSTNSQPWHFIVASTEEGKARVAKSAAGNYVFNERKMLDASHVVVFCAKTAMDDVWLKLVVDQEDADGRFATPEAKAANDKGRKFGADMHRKDLHDDAEWMAKQVYLNVGNFLLGVAALGLDAVPIEGFDAAILDAEFGLKEKGYTSLVVVPVGHHSVEDFNATLPKSRLPQNITLTEV
# B13: Y68C (protein)
# chain: MDIISVALKRHSTKAFDASKKLTPEQAEQIKTLLQYSPSSTNSQPWHFIVASTEEGKARVAKSAAGNCVFNERKMLDASHVVVFCAKTAMDDVWLKLVVDQEDADGRFATPEAKAANDKGRKFFADMHRKDLHDDAEWMAKQVYLNVGNFLLGVAALGLDAVPIEGFDAAILDAEFGLKEKGYTSLVVVPVGHHSVEDFNATLPKSRLPQNITLTEV
# B14: F124A (protein)
# chain: MDIISVALKRHSTKAFDASKKLTPEQAEQIKTLLQYSPSSTNSQPWHFIVASTEEGKARVAKSAAGNYVFNERKMLDASHVVVFCAKTAMDDVWLKLVVDQEDADGRFATPEAKAANDKGRKFAADMHRKDLHDDAEWMAKQVYLNVGNFLLGVAALGLDAVPIEGFDAAILDAEFGLKEKGYTSLVVVPVGHHSVEDFNATLPKSRLPQNITLTEV
# B15: Y68N (protein)
# chain: MDIISVALKRHSTKAFDASKKLTPEQAEQIKTLLQYSPSSTNSQPWHFIVASTEEGKARVAKSAAGNNVFNERKMLDASHVVVFCAKTAMDDVWLKLVVDQEDADGRFATPEAKAANDKGRKFFADMHRKDLHDDAEWMAKQVYLNVGNFLLGVAALGLDAVPIEGFDAAILDAEFGLKEKGYTSLVVVPVGHHSVEDFNATLPKSRLPQNITLTEV
# Key:
# [1] = test system: UT5600 cells (NTR−) lysogens; assay: Survival curve (colony count) IC50 of CB1954 in NTR-expressing lysogens; type: cell-based, E. coli; settings: concentration of CB1954 giving 50% reduction in colony number after 36h growth; lysogen expressing the named NTR
# Protocol: To quantify the improvement in NTR activity in the clones in a less subjective way, a few clones were selected for further study by determining their survival curves. The lysogens were grown overnight in LB +kanamycin and diluted to approximately 1 cell per μl based on the OD. In duplicate, 100 μl diluted cells were plated into Tris-buffered LB plates containing kanamycin, IPTG and 0-400 μM CB1954. After 36h growth the number of colonies on each plate were counted and expressed as a percentage of the number present on the plates with no CB1954. Survival curves showing % survival versus concentration of CB 1954 were plotted (see examples in FIG. 7) and the IC50 determined as the concentration of CB 1954 which kills gives a 50% reduction in colony number (Table 3 and FIG. 8). A few clones containing mutations resulting in an enhanced sensitivity to CB 1954 were selected for further study.
# [2] = test system: UT5600 cells (NTR−) lysogens; assay: Replica-plate screening of mutant NTR-expressing lysogens on increasing CB1954 (growth score); type: cell-based, E. coli; parameters: key to Score: 0: Good growth on all concentrations of CB 1954 = vector; Good growth on 100 and 200, faint on 300, ring of growth on 400 μM; Good growth on 100 and 200, ring growth on 300, none or very faint on 400 μM; Good growth on 100, faint to good on 200, none or very faint on 300 and 400 μM; 4: Good growth on 100 μM, none to ring growth on 200 μM = wild type; Good growth on 50 μM, ring on 100 μM, none on 200, 300 or 400 μM; 6: Faint growth on 50 μM, ring on 100 μM; 7: Good growth on 50 μM, none on 100 μM; 8: Ring growth on 50 μM, none on 100 μM; 9: None or very faint growth on 50 μM, none on 100 μM; 10: None or ring growth on 35 μM; settings: for Score: growth of lysogens on agar with kanamycin, IPTG and 0-400 μM CB1954, wild type = 4, higher = more sensitive
# Protocol: The ligation mix was packaged (Stratagene) into lambda bacteriophage particles that were used to infect UT5600 cells (NTR ^−). As a control wild type NTR was also cloned into this vector (JG16C2). Kanamycin resistant lysogens were selected on agar plates ([…] kanamycin) then individually grown overnight in a well of a 96-well plate in LB+Kanamycin. The clones were replica plated on to a series of plates containing Tris-buffered (50 mM, pH 7.5) LB agar with kanamycin, IPTG (0.1 mM) and CB1954 at a concentration of 0, 25, 35, 50, 100, 200, 300 or 400 μM (see FIG. 3). […]
Molecule,IC50 [1],nitroreductase activity with CB1954 compared with wild-type [2],Score [2]
B1,33 µM,substantially greater activity with CB 1954 than the wild-type,9
B2,56 µM,substantially greater activity with CB 1954 than the wild-type,5-7
B3,108 µM,,4-5
B4,36 µM,substantially greater activity with CB 1954 than the wild-type,7-9
B5,39 µM,substantially greater activity with CB 1954 than the wild-type,8
B6,81 µM,,5-7
B7,66 µM,substantially greater activity with CB 1954 than the wild-type,5-7
B8,37 µM and 53 µM,substantially greater activity with CB 1954 than the wild-type,7-9
B9,56 µM and 87 µM,substantially greater activity with CB 1954 than the wild-type,7-9 and 7-8
B10,96 µM,,5-7
B11,41 µM,substantially greater activity with CB 1954 than the wild-type,7-9
B12,49 µM,substantially greater activity with CB 1954 than the wild-type,7
B13,105 µM,,5
B14,20 µM and 32 µM,substantially greater activity with CB 1954 than the wild-type,7-9
B15,79 µM,,5-7
